“Also recorded” adds a separate entry of the source.
Tests used:
[1] = tested on: NGF-differentiated PC12 cells; test: Serum-induced neurite retraction; format: cell-based; details: 0 to 15 min after serum addition
Experimental: (§1) FIG. 6A represents histograms quantifying the effects of GFP-TRIPα or GFP on serum induced neurite retraction in NGF-differentiated PC12 cells. The X-axis represents the time after serum addition in minutes and the Y-axis represents the percentage of transfected cells with neurites.
Cells were transfected with GFP-TRIPα (white bars) or GFP (black bars) and differentiated with NGF (50 ng/ml). Serum was added and neurite retraction was followed for 15 minutes. The number of transfected cells with neurites was counted from at least 200 cells in 3 independent experiments.
Since Trio is an activator of RhoA and is expressed in PC12 cells (Estrach et al., 2002), it was analysed whether TRIPα could interfere with serum-induced neurite retraction in NGF-differentiated PC12 cells. […] After NGF treatment, cells were subjected to serum addition (DMEM medium supplemented with 10% HS and 5% fetal calf serum (FCS)) from 0 to 15 min (FIG. 6A). Cells were then fixed and permeabilised (Estrach et al., 2002) and observed as described in FIG. 5. Cells with neurites are defined as cells with neurites of at least twice the length of the cell body.

[2] = tested on: NGF-differentiated PC12 cells; test: LPA-induced neurite retraction; format: cell-based
Experimental: as §1, with “FIG. 6B” for “FIG. 6A”, “on LPA (lysophosphatidic acid)” for “on serum”, “after LPA” for “after serum”
Cells were transfected with GFP-TRIPα (white bars) or GFP (black bars) and differentiated with NGF (50 ng/ml). 10 μM LPA was added and neurite retraction was followed for 15 minutes. The number of transfected cells with neurites was counted from at least 200 cells in 3 independent experiments.
Among the serum components known to trigger neurite retraction and cell rounding in neuronal cells is lysophosphatidic acid (LPA) (Moolenaar et al., 1997). Thus, a similar neurite retraction assay was performed, except that, instead of the serum-containing medium, LPA (10 μM, Sigma) was added to TRIPα transfected and differentiated PC12 cells (FIG. 6B).

Lbc = test: In vitro GEF assay on RhoA; format: biochemical; set-up: key to in vitro GEF assay (inhibition): +++^2 and +^2 represent respectively a full and a partial (see FIG. 3) inhibitory effect; +++^2 and +^2 represent respectively a full and a partial (see FIG. 3) inhibitory effect; −−^2 represents a lack of inhibitory effect; details: for Effect on Lbc exchange activity on RhoA: 20-fold molar excess, Lbc 0.4 μM
Chain of Lbc (Q12802 1994-2333 limits assumed): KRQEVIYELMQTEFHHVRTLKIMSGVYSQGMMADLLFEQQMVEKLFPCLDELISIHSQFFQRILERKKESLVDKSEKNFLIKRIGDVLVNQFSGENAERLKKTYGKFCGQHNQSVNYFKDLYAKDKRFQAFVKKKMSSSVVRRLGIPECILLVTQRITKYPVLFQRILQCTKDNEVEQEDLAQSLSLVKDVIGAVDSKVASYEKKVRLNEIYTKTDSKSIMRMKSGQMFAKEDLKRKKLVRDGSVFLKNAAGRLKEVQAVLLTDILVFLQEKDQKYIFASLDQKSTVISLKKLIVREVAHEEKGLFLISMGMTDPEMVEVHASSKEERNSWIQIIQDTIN
Experimental: (§2) To test the specificity of TRIAPα inhibition in vitro, exchange experiments were performed either on RhoA with different RhoA-specific GEFs: Trio GEFD2 (0.4 μM), Kalirin GEFD2 (KalGEFD2, 1.7 μM), p63RhoGEF (Souchet et al., 2002) (0.4 μM) and Lbc (amino acids 172-598; Zheng et al., 1995) (0.4 μM), or on RhoG, with the RhoG-specific GEF domain of Trio (TrioGEFD1, 0.1 μM). Exchange assays were performed with the recombinant GEFs as described in FIG. 2A. Different concentrations of RhoGEFs were used to yield a similar nucleotide exchange efficiency. For each exchange factor, three independent experiments were done in absence (black bar) or in the presence (grey bar) of a 20-fold molar excess of TRIAPα.
(§3) An in vitro guanine nucleotide exchange (GEF) assay was used to test whether the TrioGEFD2-binding aptamers could inhibit the catalytic activity of TrioGEFD2 towards RhoA. For this purpose, the aptamers TRIAPα, TRIAPβ and TRIAPγ (including the Trx gene) were excised from pEG202 as EcoRI/NotI fragments and cloned into pGEX4T1 EcoRI/NotI. The aptamers were then expressed and purified from bacteria as GST fusion proteins, using standard procedures (Smith and Johnson, 1988). GTPase-GST fusion proteins were prepared, loaded with [^3H]GDP and the guanine nucleotide release assays were performed as described (Debant et al., 1996), using recombinant GST-TrioGEFD2 (a.a. 1848-2298), TrioDH2 (a.a. 1848-2096). For each point, 0.3 μM GTPase was mixed with or without 0.4 μM GEF in presence of non-labeled GTP, and the reaction mix was filtered after 0 min and 15 mm reaction at 25° C. The catalytic activity of TrioGEFD2 was thus measured by the decrease of the GTPase-associated radioactivity. The results are expressed as the ratio “exchange after 15 min over exchange after 0 min” (% bound [^3H]GDP-RhoA). To measure the effect of the aptamers on the exchange activity, a 20-fold molar excess of GST-TRIAPs was pre-incubated with GEFD2 (or GEFD1) for 30 min on ice before the exchange assay was carried out. For each experiment, data were obtained in triplicate.
(§4) The effect of GST-TRIAPα on other Rho-GEFs that display in vitro exchange activity on RhoA was next tested to investigate whether TRIAPα inhibition was specific of TrioGEFD2. The exchange activities of the RhoGEF Lbc (a.a. 1-424, FIG. 3)(Zheng et al., 1995) and Dbl (a.a. 495-826, data not shown) were not affected by GST-TRIAPα. The effect of GST-TRIAPα on the catalytic activity of RhoGEFs that display a high sequence similarity with TrioGEFD2 was then tested: the recently identified RhoA-specific p63RhoGEF (Souchet et al., 2002) (a.a. 149-374, 71.5% identity with TrioGEFD2, 0.4 μM) and the second Rho-GEF domain of the Trio family member Kalirin (KalGEFD2, a.a. 1850-2190, 65% identity with TrioGEFD2, 1.7 μM). Different concentrations of RhoGEFs were used to yield similar nucleotide exchange […]. For each exchange factor, three independent experiments were done in absence or in the presence of a 20-fold molar excess of GST-TRIAPα. […] Thus, the in vitro inhibitory activity of TRIAPα was selective for TrioGEFD2 (see table I for summary of the tested RhoGEFs).

p63RhoGEF = target: T1, p63RhoGEF (Homo sapiens, UniProt Q86VW2); test: In vitro GEF assay on RhoA; format: biochemical; set-up: key to in vitro GEF assay (inhibition): +++^2 and +^2 represent respectively a full and a partial (see FIG. 3) inhibitory effect; +++^2 and +^2 represent respectively a full and a partial (see FIG. 3) inhibitory effect; −−^2 represents a lack of inhibitory effect; details: for Effect on p63RhoGEF exchange activity on RhoA: 20-fold molar excess, p63RhoGEF 0.4 μM
T1 construct: (a.a. 149-374, 71.5% identity with TrioGEFD2, 0.4 μM); made in house
T1 sequence (Q86VW2 149-374): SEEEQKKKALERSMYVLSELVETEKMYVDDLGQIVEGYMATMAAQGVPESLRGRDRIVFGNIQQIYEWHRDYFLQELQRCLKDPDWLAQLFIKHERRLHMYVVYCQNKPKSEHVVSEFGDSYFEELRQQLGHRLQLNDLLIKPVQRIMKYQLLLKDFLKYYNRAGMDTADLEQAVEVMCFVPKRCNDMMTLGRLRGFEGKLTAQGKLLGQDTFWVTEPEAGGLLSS
Experimental: as §2, §3, §4

Row | Molecule | Effect on serum-induced neurite retraction [1] | Effect on LPA-induced neurite retraction ([2]; 10 μM LPA, 15 min) | percentage of transfected cells with neurites after LPA addition ([2]; 15 min after 10 μM LPA) | Effect on Lbc exchange activity on RhoA (Lbc) | Effect on Lbc exchange activity on RhoA (Lbc; listed as GST-TRIAPα) | in vitro GEF assay (inhibition) (Lbc; RhoGEF Lbc) | Effect on p63RhoGEF exchange activity on RhoA (p63RhoGEF) | Effect on p63RhoGEF exchange activity on RhoA (p63RhoGEF; listed as GST-TRIAPα) | in vitro GEF assay (inhibition) (p63RhoGEF; RhoGEF p63RhoGEF)
1 | AREGADGAICGYNLATLVMLGPSERVFCPLCEPCSSDIYELM [TRIPα, 42-amino acid peptide corresponding to the variable region of TRIAPα] | prevents serum- and LPA-induced neurite retraction; also recorded: significantly inhibited this retraction | prevents serum- and LPA-induced neurite retraction; also recorded: also inhibited LPA-mediated neurite collapse | more than 37% |  |  |  |  |  | 
2 | TRIAPα: aptamer of 154 amino acids: variable region of 42 amino acids inserted into the thioredoxin protein; tested as GST fusion (protein) MSDKIIHLTDDSFDTDVLKADGAILVDFWAEWCGPAREGADGAICGYNLATLVMLGPSERVFCPLCEPCSSDIYELMGPCKMIAPILDEIADEYQGKLTVAKLNIDQNPGTAPKYGIRGIPTLLLFKNGEVASATKVGALSKGQLKEFLDANLA |  |  |  | has no effect | not affected | −−^2 | has no effect | had no effect | −−^2

— patent US8088892B2, “Inhibitors of proteins from the Rho-GEF family” (Centre National de la Recherche Scientifique (C.N.R.S.), priority 2002, dated 2012)
